We go through 13 molecules from patent publication US20230002492A1 (SIMCERE SHANGHAI PHARMACEUTICAL, published 2023).

Changes are numbered by the printed parent chain.

B1: 156-11H (antibody, V domains shown)
VH: QVQLVQSGPELKKPGASVKISCKASGYTFTDYYMNWVRQAPGQSLEWIGDIWPNNGDTSYNQKFKGRVTLTRDTSTSTVYMELRSLRSEDTAVYYCARSVMDYWGQGTLVTVSS
VL: EIVLTQSPALLSLSPGERVTLSCSASSSVNYVYWYQQKPGQAPRPLIYLTFNLASGIPARFSGSGSGTDFTLTISSLEPEDFAVYYCQQWSVNPLTFGGGTKVEIK
B2: 156-10H (antibody, V domains shown)
VH: B1 VH with D102S, Y103D
VL: B1 VL with V92S
B3: 156-1H (antibody, V domains shown)
VH: B1 VH with S59W
VL: B1 VL
B4: 156-7H (antibody, V domains shown)
VH: B1 VH with Y103T
VL: B1 VL
B5: PDL1-50 (antibody, V domains shown)
VH: EVQLQESGGDLVKPGGSLKLSCAASGFTFNTYGMSWVRQTPDKRLEWVATLSSGGSYTYYSESVKGRFTISRDNAKNTLYLQMTSLKSEDTAIYYCARPTADWHLDVWGTGTTVTVSS
VL: DIQMTQSPSSLSASLGGKVTITCKASQDINKYIAWYQHKPGKGPRLLIHYTSTLQPGIPSRFSGSGSGRDYSFSISNLEPEDIATYYCLQHDNLLFTFGSGTKLEIK
B6: PDL1-90 (antibody, V domains shown)
VH: B5 VH with A23T, N30S, L51V, S61P, E62D, T84S
VL: B5 VL with S7T, K31R, R45S
B7: PDL1-34 (antibody, V domains shown)
VH: B5 VH with T84N
VL: B5 VL with Q3L, K24N, R45S
B8: PDL1-370 (antibody, V domains shown)
VH: EVQLQESGPGLAKPSQTLSLTCSVTGYSITSDYWNWIRKFPGNKLEYMGYISYTGSTYYNPSLKSRISIARDTSRNQYYLQLNSVTTEDSATYYCARAGGWLLPFAVWGTGTTVTVSS
VL: DIVITQSPSSLAVSVGEKVTMSCKSSQSLLYSSNQQNSLAWYQQKPGQSPILLIYWASTRESGVPDRFTGGGSGTDFTLTISSVRAEDLAVYYCQQYYNYPWTFGGGTKLEIK
B9: PDL1-413 (antibody, V domains shown)
VH: B8 VH with N83K, S90T
VL: B8 VL with I4M, G71S, N99S
B10: PDL1-794 (antibody, V domains shown)
VH: EVQLQESGPSLVKPSQTLSLTCSVTGDSITSGYWNWIRKFPGNKLEYMGYISYSGSTYYNPFLKSRISITRDTSKNQYYLQLNSVTTEDTATYYCAKMGDWLAWFAYWGQGTTVTVSS
VL: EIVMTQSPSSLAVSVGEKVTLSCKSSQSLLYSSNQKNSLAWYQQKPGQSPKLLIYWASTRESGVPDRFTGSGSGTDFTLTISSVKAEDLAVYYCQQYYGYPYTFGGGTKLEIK
B11: PDL1-156 (antibody, V domains shown)
VH: EVQLQESGPELVKPGASVKISCKASGYTFTDYYMNWVRQSHGKSLEWIGDINPNNGDTSYNQKFKGKATLTVDKSSSTAYMDLRSLTSEDSAVYYCASSVMDYWGQGTTVTVSS
VL: DIVLTQSPALMSASPGEKVTMTCSASSSVNYVYWYQQKPRSSPKPWIYLTFNLASGVPARFSGSGSGTSYSLTISSMEAEDAATYYCQQWSSNPLTFGAGTKLEIK
B12: PDL1-130 (antibody, V domains shown)
VH: EVQLQESGPGLAKPSQTLSLTCSVTGYSITSDYWNWIRKFPGNKLEYVGYISYTGSTYYNPSLRSRISITRDTSKNQYYLQLNSVTAEDTATYYCARCPGWLNAMDYWGQGTTVTVSS
VL: DILMTQSPSSLAVSVGEKVTLSCKSSQSLLYSNNQKNSLAWYQQKPGQSPKLLIYWASTGESGVPDRFTGSGSGTDFTLTISSVKAEDLAVYYCQQYYGYPFTFGAGTKLEIK
B13: PDL1-373 (antibody, V domains shown)
VH: EVQLQESGGGLVKPGGSLKLSCAASGFTFSDYGMHWVRQAPEKGLEWVAYISSGSSTIYYADTVKGRFTISRDNAKNTLFLQMTSLRSEDTAMYYCARRNFGSSYDYWGQGTTVTVSS
VL: EIVMTQSHKFMSTSVGDRVSITCKASQDVDTPVAWYQQKPGQSPRLLIYWASIRHTGVPDRFTGSGSGTDFTLTISNVQSEDLADYFCQQYSSYPLTFGSGTKLEIK

T3 sequence (G7PSE7 entry or part of it limits assumed): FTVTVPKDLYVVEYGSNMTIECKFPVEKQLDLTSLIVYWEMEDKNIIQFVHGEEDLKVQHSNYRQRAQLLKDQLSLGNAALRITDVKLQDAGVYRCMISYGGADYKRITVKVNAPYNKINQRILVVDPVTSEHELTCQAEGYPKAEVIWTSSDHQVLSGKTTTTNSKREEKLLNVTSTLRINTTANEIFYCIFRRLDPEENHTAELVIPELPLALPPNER
T1 sequence (Q9NZQ7 19-290 limits assumed): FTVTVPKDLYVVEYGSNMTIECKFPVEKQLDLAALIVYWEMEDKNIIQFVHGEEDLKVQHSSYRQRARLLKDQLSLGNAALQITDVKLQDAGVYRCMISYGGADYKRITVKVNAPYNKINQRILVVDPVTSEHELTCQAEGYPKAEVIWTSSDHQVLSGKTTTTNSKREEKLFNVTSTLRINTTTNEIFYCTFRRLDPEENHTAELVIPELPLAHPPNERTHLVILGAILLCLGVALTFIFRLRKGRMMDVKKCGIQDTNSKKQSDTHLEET

One assay addresses T1, PD-L1 on the surface of CHO-PD-L1 cells (UniProt Q9NZQ7 19-290, limits assumed). Kind of assay: cell-based or functional assay.
B1: the “EC50 of NFAT luminescence reporter gene (RLU), Jurkat-PD-1 / CHO-PD-L1 co-culture” value came to 0.282 µg/mL.
Still for that read-out and setting: under B2 stands 0.357 µg/mL; under B3, 0.342 µg/mL; under B4, 0.314 µg/mL.

A further assay deals with T1, PD-L1 on the surface of CHO-PD-L1 cells. Kind of assay: flow cytometry on CHO-PD-L1 cells, anti-human IgG PE. How it is done: (§1) A gradient concentration of antibodies to be detected (final concentration of antibody: 10000 ng/ml-0.1 ng/ml, 10-foldserial dilution) were incubated with CHO-PD-L1 cells (Nanjing Yongshan Biotechnology Co., Ltd., 10⁵ cells/well) with high expression of PD-L1 on the cell surface at 4° C. ° C. for 30min. After incubation, 1:250 diluted anti-human IgG PE fluorescent antibody (eBioscience, Cat. 12-4998-8) was added, and incubated at 4° C. for 30 min. The fluorescent antibody specifically bound to the Fc fragment of the antibody to be detected. The fluorescent intensity of PE was detected by FACS, and the ability of the antibody to be detected to bind to PD-L1 protein highly expressed on the cell surface was analyzed. […] MFI fold=MFI value of the experimental group/MFI value of the control group without drugs.
A general note: In flow cytometry, cells or beads pass a laser one at a time.
As for B1, the midpoint of the response, the EC50, lay at 0.05 µg/mL.
As for B2, the half-maximal effective concentration (EC50) amounted to 0.0635 µg/mL.
Still for that read-out and setting: under B3 stands 0.0494 µg/mL; under B4, 0.0784 µg/mL.

For another assay, the target named is T2, recombinant human PD-L1-His (Novoprotein, Cat. 315) (human, UniProt Q9NZQ7 19-239).
T2 construct: Bought protein; also called human PD-L1 recombinant protein; human PDL1 protein; not shown: His tag
T2 sequence (Q9NZQ7 19-239 limits assumed): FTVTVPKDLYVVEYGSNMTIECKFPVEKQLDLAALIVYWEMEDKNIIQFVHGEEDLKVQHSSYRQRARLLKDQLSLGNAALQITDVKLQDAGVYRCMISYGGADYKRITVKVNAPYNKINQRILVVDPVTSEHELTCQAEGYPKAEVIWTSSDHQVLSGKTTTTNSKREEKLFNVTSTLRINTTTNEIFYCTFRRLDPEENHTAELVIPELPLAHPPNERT
The assay is described as follows: SPR, Biacore T200, antibody captured, PD-L1-His injected, 1:1 model, 25 C. How it is done: (§2) Biacore T200 (GE Healthcare) was used to determine binding affinity of the PD-L1 antibody to the human and cynomolgus monkey PD-L1-His proteins. Anti-human IgG Fc (Genway, Cat. GWB-20A705) was immobilized on CM5 chip (GE Healthcare, Cat. BR-1005-30) at 25° C. Anti-human Fc (Genway, Cat. GWB-20A705) was diluted to […] with Acetate pH5.0 (GE Healthcare, BR-1003-51). The Amine method in the Immobilization method was used to immobilize. Alternatively, a commercially available Protein A (GE Healthcare, Cat. 29127556) chip was used for detection. […] In each cycle, the antibody to be tested was captured on the fixed CM5 chip, then injected with recombinant human PD-L1-His (Novoprotein, Cat. 315) and cynomolgus monkey PD-L1-His protein (Sino Biological, Cat. 90251-CO8H), and finally regenerated with Glycine pH1.5. The mobile phase was HBS-EP+Buffer (GE Healthcare, Cat. BR-1006-69), the flow rate was 30 μL/min, and the binding time was 300 seconds. The regeneration flow rate was 30 μL/min and the time was 30 seconds. Using Biacore T200 evaluation software (version 3.0), a 1:1 binding model was used to analyze the experimental data, fit the equilibrium dissociation constant KD of the antibody and antigen, and determine the binding rate constant Ka and dissociation rate constant Kd.
(In SPR one partner is held on a chip, and binding of the other changes the refractive index at the surface.)
Turning to B5, the Kd stood at 0.699 nM.
Same read-out and setting: under B6 stands 0.87 nM; under B7, 0.458 nM.
Still for that read-out and setting: under B8 stands 2.42 nM; under B9, 2.09 nM.
On the same count and under the same terms, under B10 stands 1.25 nM; under B11, 0.291 nM.
Regarding B12, the Kd stood at 2.18 nM.
Same read-out and setting: under B13 stands 2.45 nM.

Another assay concerns the target T3, cynomolgus monkey PD-L1-His protein (Sino Biological, Cat. 90251-CO8H) (cynomolgus monkey, UniProt G7PSE7 19-238).
T3 construct: Bought protein; also called cynomolgus monkey PD-L1 recombinant protein
The assay is described as above. On the procedure:
as §2
B5 came in with a Kd of 33.1 nM.
Take B6: the Kd turned out to be 62.5 nM.
As to B7, the Kd was 5.43 nM.
Turning to B8, the Kd was 2.18 nM.
In turn, B9 yielded a dissociation constant Kd of 2.76 nM.
Still for that read-out and setting: under B10 stands 0.883 nM; under B11, 0.375 nM.
The same measure, in the same setting: under B12 stands 1.95 nM; under B13, 3.64 nM.

In a further assay the target is T4, recombinant human PD-L1 protein (Sino Biological, Cat. 10084-H05H) (human, UniProt Q9NZQ7 19-239).
T4 construct: also called PD-L1-mFc; human PD-L1 protein fused with mouse Fc
T4 sequence (Q9NZQ7 19-239 limits assumed): as above
The assay is described as follows: competitive ELISA: PD-L1 coated, antibody titrated against PD-1-His, anti-His-HRP. On the procedure:
(§3) The recombinant human PD-L1 protein (Sino Biological, Cat. 10084-H05H) was diluted with carbonate buffer and added to a 96-well plate at a final concentration of […]. […] Then HRP-labeled anti-His tag antibody (MBL, Cat. D291-7) was added, and color development was performed with TMB. After termination with 1M sulfuric acid, OD values (dual wavelength 450 nm-630 nm) were read. The competitive binding curve of the test antibody can be drawn by matching the antibody concentration with the OD value to calculate the IC50 value.
In general terms: In an ELISA, binding on a coated surface is turned into a signal by an enzyme label.
Take B1: the half-inhibitory concentration (IC50) is 0.207 µg/mL.
On the same count and under the same terms, under B2 stands 0.25 µg/mL; under B3, 0.197 µg/mL.
Same read-out and setting: under B4 stands 0.231 µg/mL.
For the molecule B11, the IC50 was 0.221 µg/mL.

For another assay, the target named is T2, recombinant human PD-L1-His …. The assay is described as follows: SPR, Biacore T200, antibody captured, human PD-L1-His injected, 1:1 model, 25 C. On the procedure: as §2
As for B1, the equilibrium dissociation constant (Kd) is 0.336 nM, the koff was determined as 0.000193 s⁻¹ and the kon is 574000 M⁻¹ s⁻¹.
The corresponding values for B2 are 0.224 nM, 0.000133 s⁻¹ and 595000 M⁻¹ s⁻¹.
As for B3, the equilibrium dissociation constant (Kd) was 0.458 nM, the koff worked out at 0.000227 s⁻¹ and the kon stood at 494000 M⁻¹ s⁻¹.
The corresponding values for B4 are 0.348 nM, 0.00018 s⁻¹ and 518000 M⁻¹ s⁻¹.
The matching figures for B11: 0.291 nM, 0.000233 s⁻¹ and 802000 M⁻¹ s⁻¹.

The next assay addresses T1, PD-L1 on the surface of CHO-PD-L1 cells. Kind of assay: flow cytometry on CHO-PD-L1 cells, anti-human IgG PE, MFI fold, ng/ml is the unit of the concentration axis. On the procedure:
as §1
With B5, the EC50 worked out at 0.113 µg/mL.
The molecule B6 returned an EC50 of 0.119 µg/mL.
Still for that read-out and setting: under B7 stands 0.113 µg/mL; under B11, 0.0235 µg/mL; under B12, 0.0646 µg/mL.
Still for that read-out and setting: under B13 stands 0.0633 µg/mL.

The next assay addresses T4, recombinant human PD-L1 protein (Sino …). The assay is described as follows: competitive ELISA: coated human PD-L1 protein, antibody titrated together with human PD-1-His, bound PD-1-His detected with HRP anti-His. On the procedure: as §3
B5: the IC50 turned out to be 0.294 µg/mL.
As for B6, the IC50 is 0.259 µg/mL.
The same measure, in the same setting: under B7 stands 0.276 µg/mL.
Still for that read-out and setting: under B8 stands 0.156 µg/mL; under B9, 0.184 µg/mL; under B10, 0.191 µg/mL.
Same read-out and setting: under B12 stands 0.225 µg/mL; under B13, 0.12 µg/mL.

The target is the same in another assay. The assay is described as follows: competitive ELISA: coated human PD-L1 protein, antibody titrated together with human PD-1-His, bound PD-1-His detected with HRP anti-His; panel A experiment (the text prints only the panel B value). How it is done: as §3
As for B11, the IC50 came to 0.14 µg/mL.

The EC50 is the concentration that produces a half-maximal response. One may read the Kd as the constant that tells how readily two partners part at equilibrium. The IC50 is the concentration at which inhibition is half-maximal. One may read the koff as the rate constant with which the complex falls apart. As usually defined, the kon is the rate constant with which the complex forms.
